As usually defined, the koff is the rate constant with which the complex falls apart.

This note sets out measurements from patent publication US20250340659A1 (PETMEDIX, published 2025).

Experiment [1] deals with T1, recombinant canine OX40L ECD-TNCc-HIS protein (canine).
T1 construct: also called Trimeric OX40L probe (HIS tag); trimeric canine OX40L
T1 chain: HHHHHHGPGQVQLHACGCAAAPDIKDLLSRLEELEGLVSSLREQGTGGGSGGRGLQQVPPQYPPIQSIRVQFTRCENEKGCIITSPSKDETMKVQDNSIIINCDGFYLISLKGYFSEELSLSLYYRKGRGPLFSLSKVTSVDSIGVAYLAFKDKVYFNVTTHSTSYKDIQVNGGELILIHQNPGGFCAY
As to the kind of experiment: SPR KD1, bivalent analyte model. The protocol:
(§1) Affinity (Kd) of OX40L antibodies is measured by SPR, using a recombinant canine OX40L ECD-TNCc-HIS protein (Seq ID 811) as the capturing agent (FIG. 5B).
(§2) Functional affinity is determined using a Biakore 8K (Cytiva). in brief, purified OX40L ECD-TNCc-HIS protein is covalently bound at low density to the surface of a CM5 sensor chip (Cytiva) by amine coupling, using the manufacturer's recommended protocol. Candidate antibodies are subsequently passed across the chip surface at a range of concentrations and affinity determined using the dedicated software (Biacore Insight Evaluation Software). Curves were fitted using a bivalent analyte binding model.

The target of experiment [2] is T1, recombinant canine OX40L ECD-TNCc-HIS …. As to the kind of experiment: SPR Koff (kd2). The protocol: as §1, §2
Experiment [3] has as its target T2, canine OX40L, full length membrane form, expressed on HEK293 cells (canine).
T2 chain: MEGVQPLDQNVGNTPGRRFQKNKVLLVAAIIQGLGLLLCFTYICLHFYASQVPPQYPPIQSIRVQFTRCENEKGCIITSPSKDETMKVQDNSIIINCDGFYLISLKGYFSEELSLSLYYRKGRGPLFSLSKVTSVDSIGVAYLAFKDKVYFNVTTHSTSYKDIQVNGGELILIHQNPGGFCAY
As to the kind of experiment: cell-based or functional assay.

Experiment [4] addresses T1, recombinant canine OX40L ECD-TNCc-HIS …. As to the kind of experiment: SPR Koff (kd1). On the procedure:
as §1, §2

For experiment [5], the target named is T2, canine OX40L, full length membrane …. The experiment is described as follows: flow cytometry, OX40L HEK minus WT HEK. The protocol:
(§3) CHO supernatants diluted in FACS buffer (PBS containing 3% FBS) at 1, 5 or 10 μg/ml were used to screen for their binding capacity to canine OX40L using a cell-based assay. In brief, HEK293 or MEF cells (or any other commonly used cell lines) expressing canine OX40L at the cell surface are incubated with 100 μll of FACS buffer containing the candidate antibody for 30′ on ice. Cells are washed with 150 μl FACS buffer followed by centrifugation at 300 g for 3 min. The cell pellet is resuspended in FACS buffer containing a 1:1000 dilution of a fluorescently labelled secondary antibody recognising the canine Fc region of the test antibody for 30 min in the dark, followed by washing with 150 μl FACS buffer. Cells are resuspended in FACS buffer and flow cytometry performed using either a […] cytometer, followed by data analysis using FlowJo (FIG. 6 and Table 4).
(In general: A flow cytometer gives signals particle by particle.)

The target is the same in experiment [6]. As to the kind of experiment: flow cytometry. The protocol:
as §3

B1: PMX098 (antibody, V domains shown)
VH: EVQLVESGGDLVKPGGSLRLSCVASGFTFNTYHMNWVRQAPGKGLHWVAFINSGGSGTSYADTVKGRFTISRDYAKNTLYLQMNSLRAEDTAVYYCASGSIWTHFDYWGQGTLVTVSS
VL: SYVLTQLPSVSLTLRQTAHITCGGDIIGSKSVYWYQQKLGQAPVLIIYRDNNRPTGIPERFSGASSGNTATLTISGALAEDEADYYCQVWDSSTQAMFGGGTHLTVL
B1: in experiment [1], the Kd stood at 14.1 nM. In addition, the koff in experiment [2] is 1.03 s⁻¹. Moreover, in experiment [3], the “% Signal Inhibition Average” value came to 45%, the “% Signal Inhibition Rep1” value stood at 40.4%, the “% Signal Inhibition Rep2” value stood at 55% and the “% Signal Inhibition Rep3” value is 39.8%. Moreover, in experiment [4], the koff was 0.00147 s⁻¹.

B2: PMX110 (antibody, V domains shown)
VH: EVQLVESGGDLVRPGGSLRLSCVASGFTFSSYHMSWVRQAPGKGLQWVAFINSGGSSTTYADVVRGRFTISRDYAKNTLYLQMNSLRAEDTAVYYCASGSILTHFDYWGQGTLVTVSS
VL: SFVLTQLPSVSVTLRQTARITCGGDSVGSKSVYWYQQKLGQAPVLIIYRDSNRPTGIPERFSGASSGNTATLTISGALAEDEADYYCQVWDNSNKAMFGGGTHLTVL
On to B2, for which, in experiment [3], the “% Signal Inhibition Average” value came out at 37.4%, the “% Signal Inhibition Rep1” value worked out at 55.2%, the “% Signal Inhibition Rep2” value came to 43.1% and the “% Signal Inhibition Rep3” value worked out at 13.7%. In experiment [5], the GEO mean difference came out at 28400. Also, in experiment [6], the “GEO mean OX40L expressing HEK” value stood at 31900.

B3: PMX088 (antibody, V domains shown)
VH: EVQLVESGGDLVKPGGSLRLSCVASGFTFNTYHMNWVRQAPGKGLHWVAFINSGGTGTGYSDTVKGRFTISRDYAKNTLYLQMNSLRAEDTAVYYCVSGSIWTHFDYWGQGTLVTVSS
VL: SYVLTQLPSVSMTLRQTAHITCGGDIIGSKSVYWYQQKLGQAPVLIIYRDTNRPTGIPERFSGASSGNTATLTISGALAEDEADYYCQVWDSNTQAVFGGGTHLTVL
As for B3, in experiment [3], the “% Signal Inhibition Average” value stood at 7.21%, the “% Signal Inhibition Rep1” value is 17%, the “% Signal Inhibition Rep2” value was 3.51% and the “% Signal Inhibition Rep3” value came out at 1.17%. For the same molecule, in experiment [5], the GEO mean difference worked out at 775000. Further, the “GEO mean OX40L expressing HEK” value in experiment [6] is 783000.

B4: PMX087 (antibody, V domains shown)
VH: EVHLVESGGDLVKPGGSLRLSCVASGFTFSNYHMSWVRQAPGKGLQWVAFINSGGSGTSYADAVKGRFTISRDYAKSTLYLQMNSLRAEDTAVYYCASGYIWTHFDYWGQGTLVTVSS
VL: SYVLTQLPSVSVTLRQTARITCGGDIIGSKNVYWYQQKLGQAPILIIYRDSNRPTGIPERFSGASSGNTATLTISGALAEDEADYYCQVWDSSTSVFGGGTHLTVL
Take B4: in experiment [3], the “% Signal Inhibition Average” value amounted to 32.6%, the “% Signal Inhibition Rep1” value was 29.8%, the “% Signal Inhibition Rep2” value came to 46.2% and the “% Signal Inhibition Rep3” value worked out at 21.6%. The GEO mean difference in experiment [5] stood at 1.04e+06. Also, the “GEO mean OX40L expressing HEK” value in experiment [6] amounted to 1.05e+06.

B5: PMX108 (antibody, V domains shown)
VH: EVQLVESGGDLVRPGGSLRLSCVASGFTFTNYHMSWVRQAPGKGLQWVAFINSGGSSTTYTDVVRGRFTISRDYAKNTLYLQMNSLTAEDTAVYYCASGAIWTHFDHWGQGTLVTVSS
VL: SFVLTQLPSVSVTLRQTARITCGGDSVGSKSVYWYQQKLGQAPVLIIYRDSNRPTGIPERFSGASSGNTATLTISGALAEDEADYYCQVWDNSNKAIFGGGTHLTVL
For the molecule B5, in experiment [3], the “% Signal Inhibition Average” value stood at 82.2%, the “% Signal Inhibition Rep1” value turned out to be 95.6%, the “% Signal Inhibition Rep2” value turned out to be 89.8% and the “% Signal Inhibition Rep3” value turned out to be 61.3%. The molecule further showed a GEO mean difference in experiment [5] of 607000. The “GEO mean OX40L expressing HEK” value in experiment [6] amounted to 611000.

B6: PMX107 (antibody, V domains shown)
VH: AVQLVESGGDLVRPGGSLRLSCVASGFTFSSYHMNWVRQAPGKGLQWVAFINSGGSSTTYADVVRGRFTISRDYAKNTLFLQMNSLRAEDTAVYYCAIVSIWTHFDYWGQGTLVTVSS
VL: SFVLTQLPSVSVTLRQTARITCGGDIIGSKNVYWYQQRLGQAPVLILYRDTNRPTGIPERFSGASSGNTATLTISGALAEDEADYYCQVWDNSNKAMFGGGTHLTVL
On to B6, for which, in experiment [3], the “% Signal Inhibition Average” value was -5.31%, the “% Signal Inhibition Rep1” value was determined as 7.14%, the “% Signal Inhibition Rep2” value is 20.9% and the “% Signal Inhibition Rep3” value was -44%. Besides, the GEO mean difference in experiment [5] was found to be 55200. In addition, the “GEO mean OX40L expressing HEK” value in experiment [6] came to 58800.

B7: PMX111 (antibody, V domains shown)
VH: EVQLVESGGDLVRPGGSLRLSCVASGFTFSSYHMNWVRQAPGKGLQWVAFINSGASSATYADVVRGRFTISRDYAKNTLYLQMNSLRAEDTAVYYCASGSIWTHFDFWGQGTLVTVSS
VL: SFVLTQLPSVSVTLRQTARITCGGDSVGSKSVYWYQQKLGQAPVLIIYRDSNRPTGIPERFSGASSGNTATLTISGALAEDEADYYCQVWDNSNKAMFGGGTHLTVL
B7: in experiment [3], the “% Signal Inhibition Average” value came out at 38.9%, the “% Signal Inhibition Rep1” value is 44.2%, the “% Signal Inhibition Rep2” value is 37.4% and the “% Signal Inhibition Rep3” value amounted to 35.2%. In experiment [5], this molecule showed a GEO mean difference of 643000. The “GEO mean OX40L expressing HEK” value in experiment [6] came to 647000.

B8: PMX109 (antibody, V domains shown)
VH: EVQLVESGGDLVRPGGSLRLSCVASGFTFTNYHMSWVRQAPGKGLQWVAFINSGGSSTTYTDVVRGRFTISRDYAKNTLYLQMNSLTAEDTAVYYCASGSIWTHFDHWGQGTLVTVSS
VL: SFVLTQLPSVSVTLRQTARITCGGDSVGSKSVYWYQQKLGQAPVLIIYRDSNRPTGIPERFSGASSGNTATLTISGALAEDEADYYCQVWDNSNKAIFGGGTHLTVL
Take B8: in experiment [3], the “% Signal Inhibition Average” value was 53.3%, the “% Signal Inhibition Rep1” value came to 67.9%, the “% Signal Inhibition Rep2” value is 69.5% and the “% Signal Inhibition Rep3” value was found to be 22.5%. The GEO mean difference in experiment [5] was determined as 629000. In experiment [6], the “GEO mean OX40L expressing HEK” value is 633000.

B9: PMX097 (antibody, V domains shown)
VH: EVQLVESGGDLVRPGGSLRLSCVASGITFSSYHMSWVRQAPGKGLQWVALINSGGSSITYADVVRGRFTISRDYAKNTLYLQMNSLRAEDTAVYYCASGSIWTHFDYWGQGTRVTVSS
VL: SFVLTQLPSVSVTLRQTARITCGGDIIGSKNVYWYQQRLGQAPVLIIYRDSNRPTGIPERFSGASSGNTATLTISGALAEDEADYYCQVWDNSNKAMFGGGTHLTVL
notes: also called PMX97
On to B9, for which the Kd in experiment [1] was determined as 0.492 nM. In experiment [2], the koff amounted to 0.744 s⁻¹. For the same molecule, in experiment [3], the “% Signal Inhibition Average” value stood at 60.8%, the “% Signal Inhibition Rep1” value stood at 56.1%, the “% Signal Inhibition Rep2” value turned out to be 73.1% and the “% Signal Inhibition Rep3” value amounted to 53.2%. The koff in experiment [4] came out at 7.16e-05 s⁻¹.

B10: PMX292 (antibody, V domains shown)
VH: AVQLVESGGDLVRPGGSLRLSCVASGFTFSNFDMYWVRQAPGRGLQWVATISYDGFNTYSTDTVRGRFTISRDNARNTVYLQMNSLRVEDTAVFYCTARRFGLGYWGQGTLVTVSS
VL: DIFMAQTPPSLSVSPRETASISCKASQSLLHSDGNTYLDWYLQKPGQSPQLLIYLVSNRFPGVSDRFSGSGSGTGFTLRISRVEASDTGVYYCGQGTQLPYTFSQGTKLEIK
On to B10, for which, in experiment [3], the “% Signal Inhibition Average” value was found to be 71.6%, the “% Signal Inhibition Rep1” value came out at 97.5%, the “% Signal Inhibition Rep2” value came out at 54.4% and the “% Signal Inhibition Rep3” value stood at 62.9%. The molecule further showed a GEO mean difference in experiment [5] of 467000. In addition, the “GEO mean OX40L expressing HEK” value in experiment [6] stood at 471000.

B11: PMX291 (antibody, V domains shown)
VH: EVQLVESGGDLLKPGGSLRLSCVASGFPFRNYDMTWVRQAPGKGLQWVAAIHYDGSNTYYTDAVKGRFTISRDNARNTVFLQMNSLRAEDTAVYYCAKKFNNYRPFDYWGQGTLVTVSS
VL: DIVMTQTPPSLSVSPRETPSISCKASQSLLRSDGNTYLEWYLQKPGQSPQLLIYLVSNRFTGVSDRFSGSGSGTDFTLRISRVEANDAGVYYCGQGTQLPWTFGAGTKVELK
Turning to B11, in experiment [3], the “% Signal Inhibition Average” value amounted to 73.3%, the “% Signal Inhibition Rep1” value was 95.9%, the “% Signal Inhibition Rep2” value amounted to 70.3% and the “% Signal Inhibition Rep3” value amounted to 53.6%. In experiment [5], this molecule registered a GEO mean difference of 459000. Further, the “GEO mean OX40L expressing HEK” value in experiment [6] came to 463000.
